Experimental data reported in the DeepSol protein solubility set.

experiment: soluble on expression in E. coli; label from the status in PepcDB or PDB records

Sequence | soluble on expression in E. coli
SLEHFDDKSQLKRNGFYFSYNVDKENIEHWISAILFQVLKDKEDIVILSLGVDTLVGDSLGPLVGSILKRNGIPNVYGTLDRTVNASNIIKILDEIHERFKNPYILVVDAAVTAENNINDIVLRNGGFTPGFGVYRQLPTVGDFSLVGVVNKEDEREHNLIELLKKCRFDEVLKLARIISKILVLTFARMNKGDK | soluble
SLHELSIVESLIELCEENALNNKAYNVQEIYVKIGRLSGIEVDLFKRCFETFKENSNICKNAKLFIELAPLEILCLKCDQTSILEENVFKCPKCQSIEYKIIQGEDLHLMRLVMK | soluble
SLIENSHVKKDDIWPSGGQMTVKDLTAKYTEGGNAILENISFSISPGQRVGLLGRTGSGKSTLLSAFLRLLNTEGEIQIDGVSWDSITLEQWRKAFGVIPQKVFIFSGTFRKNLDPNAAHSDQEIWKVADEVGLRSVIEQFPGKLDFVLVDGGCVLSHGHKQLMCLARSVLSKAKILLLDEPSAHLDPVTYQIIRRTLKQAFADCTVILCEARIEAMLECDQFLVIEENKVRQYDSIQKLLNERSLFRQAISPSDRVKLFPHRNSSKCKSKPQIERETLVTMENVTAFWEEGGTPVLKDINFKIERGQLLAVAGSTGAGKTSLLMMIMGELEPSEGKIKHSGRISFCSQNSWIMPGTIKENIIFGVSYDEYRYRSVIKACQLEEDISKFAEKDNIVLGEGGITLSGGQRARISLARAVYKDADLYLLDSPFGYLDVLTEKEIFESCVCKLMANKTRILVTSKMEHLKKADKILILHEGSSYFYGTFSELQNLRPDFSSKLMG | soluble
SLKGLKAYRLDVPPMLADRGIDRMLAFAVPLTVRFRGIKVREGTLLHGPEGWGEWSPFWDYDPVESASWLRAGIEGATRRLPVARRDRVPINVTIPVVDADRAGRMAAESACLTAKVKVADPRSDLREDCRRVAAVREAMPDGHIRVDANTAWDVDAAVRAITELDAAAEGLEYVEQPCASVAELAQVRRKVNVPVAADESVRRAEDPLAVARAGAADLLIVKAQPLGGVARALEVIDATGLPAVVSSALDTSIGIGLATYLAAALPSLDHACGLGTIRLFQGDVSASPLLPVDGYLRPRRGEVDVEVEESDTDLCPRWSQRLALTVAALVERERS | not soluble
SLKTLFEVKQLLKQYGAFIYTRDLDADMQLMQMEMEELHRLGLIERGEFQQAMLVLKREQRAAKMGERAND | soluble
SLKVAIFDAFNGASGDMILASLLGVGISEEEIDEVVKALGIDVNYSMTTVSVRGISARRVEVEERDGERSFKEVLEIIRSSNLEEGVKKNAIAVFELIARAEGKVHGRDYREGVFHEVGADDAIFDVVCCVKAFENLKTAGYEFFATPVRAGSGFVEFSHGKYPVPPPAVLEILKSSNLEVVMDGEGELLTPTGAAILSHYCKPLKPFPIRVKEVSYGAGKRETDVPNVLRLILGETAFHDSIVVIETSVDDLSGEMIGYAMKKLLERDDVLDAVIIPAYGKKMRPASILKVISPTHRSEEVAAEVMRLTGSLGIRIIPVHHRLISERMEEVVKVEISGKEFDVRVKRSYPGFRHLKPEFDDIAVIADELNIPPHVVYREIVRKIVGAENADSNGQ | soluble
SLLEECDFPTVKDIENEFEQLKEKNVRAVARLITMAEEQAKTKEAAVTLDDKLVSLKKLNQPSPPVLGITGTGGAGKSSLTDELVRRFLNEFTDKTVAILSIDPTKQKTGGALLGDRIRMNAIHSPRVFMRSLATRGSRTEISESIRDAIAVVKAAAYDLVIVETSGIGQGDAEITEIADISMYVMTSEYGAPSQLEKIDMIDFADVIAINKFDRKGSEDALRHVRKQYQRSHQRFDEPLEAMPVYGTIASQFNDIGTNTLFAAVIDILNKKCKTSWDTSIETSKEVMKQNIIIPPERTQYLRDIVQTVKQYK | soluble
SLLSIIPISAGIPLTETEPKQKWLEEWSKQLFVKVSIDSEYGWGEVLPAAFNSPALYADIVKRLEPSLNGMEISEPGIIWEKLRKLTFSGGYGPVIGAISGVDIALWDLKAKLSKLYLGDIFGKNEQKIARYASLSRYANYEAVIRASKNIVESGFKAIKLHQTKDDTLESVKRFREEIGYGVDLMVDLNCAMNIDEAIKFANSVQRYELKWVEEPIWPPDDLASLKKINDIVPVAAGENFFDFFKFEDAVHLEALTYYQPDVTKVGGLTPTLKILDLLKKNHEQVAFHNRPHNGWIGIFASIAAARMNGVDALIETPPNGVPSQYFRYNAMITSEVIAPNGVGLSIEPIEPLPQPKDEKILIFHD | soluble
SLMQALARTGYAGPLSLEIFNDAFRAAPTEATAIDGLRSLIWIEELAEGAAWSEASPPAVGYDGVHFIEFTLDEESAAPLGEFFSALGFRHIGRHRSKNVELWHQGDIHLVLNFETDSFAHTFRLLHGTSVCAVGVRVNDLDSAVTRAAHYKAQWFRGPVGEGEMEIPALRGIEGSLVYLVDDAQAREMQWKTDFHLFEDGQDDDAGLINIDHISYVLPPTQLLSWLLFHRTVFGFDAGPEHEIADPHGMVVSQTVTSPDNSVRIPLTVSSARETLPGRFLSEHQGGVQQIAFASGDIFATIDAMLARGLPMLRIPANYYDDLAARFDLDDALLEAMRSRNILFDRNDDGDFFHAYTETFMGRFFFEVVERRGSYSQFGAVNAPIRLAAQAGQQREG | soluble
SLPIASTATQMGSNKTRIFARQPAKAPPPLAWLSRPRDPRATAIAAAGQQSSRRVSKRELESHGSATDAWTAIHGVVYDITAYFRFHPGGAEILFIEAAGKDSTAVFDEMHPWVNVAWLLKDYRIGLYAPESEDDGGDDDDDDRTMTSPE | soluble
SLPIDAVLPALRQALTTRHEAVLEAPPGAGKTTRVPLALLEETWLAGQTILMLEPRRLAARAAAERLASELGEKVGETVGYRIRLESCVGPKTRIEVVTEGILTRCLQDDPALEGVGLLIFDEFHVLPFA | not soluble
SLQEAETAARLHEVHGSWQLACAAAAKKDSADAASSTGGETKPPCAIAQVQLEEKTRKLVVSVEFRLDDAATPDRLNGTMVLPFGLAVTKLFSVKSGNMRLQEVQVSTCLPVGCIVSFTPFIELVSALKAEQTLTIEAPDLQGRIVSFQLQGKGFPEALKRLGEVR | not soluble
SLQLKSEKARIILSGEPTLLIDKGKIDISALKSQRLNINDLMEELRLKNYFNVEDIEYAILETSGQISLIPKTHLTNATKEDLNLKVKQENVPITIILDGKVNTDNIKYLNKDADWLMKELKKNKIDSPKDVFLALIDSKGKFYYQKYNN | soluble
SLSKKSVQTLEDIARLANVSRSTVSRALNNSPLISKQTRERIQAIAREHNFCLNVSGRNLRLRSSRTIAFVAPMCFPPVASAEHLFGLEMLGAIWSGLHELNYDCLIVHSASQDTDWVHRYLHSGRVDGFILMESSFKQTQIEALVQMKVPFIVWGMPVSPFNYCSVTGDNVAGGRLATEYLIRTGRQRIAFLGGLKGTLTVENRFKGYEQALQLAGRALDPALIVYGDYTYASGAAGMQRLLERAPDLDAVFVNSDLMAIAAINVIQESGRSVPADIAVVGYDDLSIAGYATLPLTTIRQNIPLAGKLLAQNLIQHIETGLVTNVTVPVELVIRKSEG | not soluble
SLSPRRLRLLLVDENPTARAVIGRRLSHRHYDVTVVEDGFAAQKTLIIQPSDIILIDMDLQLLPAIGTMEKIRAAHPAGHACIVMIGGASDTPKMIAALDAGADDHIVKPFDFDMLDARLRRVHARAEREG | not soluble
SLSRISPGNFSTNSYTSTIIKDVRFCLLLCRSLMEGWRITLLNEQEKTIFVDADACPVKDEILQTASEYEVQVLFVASFEHYQLSRSNEEKWKYVDPHKEAADLYIANHVKPGDIVVTQDIGLASLLLNRNVSVMSERGRLYKEDTIDFALEGRHFSGKQRRKGVYAKGPKKLNKEDRERFITLLQKILSNDEGILH | not soluble
SLSSVNCIEQTTEWTACSKSCGMGFSTRVTNRNRQCEMLKQTRLCMVRPCEQEPEQPTDKKGKKCLRTKKSLKAIHLQFKNCTSLHTYKPRFCGVCSDGRCCTPHNTKTIQAEFQCSPGQIVKKPVMVIGTCTCHTNCPKNNEAFLQELELKTTRGKM | soluble
